Test results published in PMC7412237 (Molecules, 2020).

B1: recombinant human Mdm2 (1–125 aa) (domain or fragment, UniProt Q00987 1-125, looked up)
chain: MCNTNMSVPTDGAVTTSQIPASEQETLVRPKPLLLKLLKSVGAQKDTYTMKEVLFYLGQYIMTKRLYDEKQQHIVYCSNDLLGDLFGVPSFSVKEHRKIYTMIYRNLVVVNQQESSDSGTSVSEN
B2: recombinant PD-L1 (18–134 aa) (domain or fragment)
chain: AFTVTVPKDLYVVEYGSNMTIECKFPVEKQLDLAALIVYWEMEDKNIIQFVHGEEDLKVQHSSYRQRARLLKDQLSLGNAALQITDVKLQDAGVYRCMISYGGADYKRITVKVNAPY

Columns and labels:
Details in all cases: both partners purified
wt-p53 (1–321 aa) = target: T1, wt-p53 (1–321 aa) (human, UniProt P04637 1-321); assay: ITC; Microcal iTC200, 25 °C; 0.012–0.030 mM p53 in the cell, 0.1–0.3 mM Mdm2 or MdmX in the syringe; 20 injections; single set of sites; in duplicate
T1 construct: p53, human, residues 1-321, cloned into pET23; also called p53-wt; source: E. coli BL21 (DE3) RIL, purified (Ni-NTA, gel filtration)
T1 sequence (P04637 1-321): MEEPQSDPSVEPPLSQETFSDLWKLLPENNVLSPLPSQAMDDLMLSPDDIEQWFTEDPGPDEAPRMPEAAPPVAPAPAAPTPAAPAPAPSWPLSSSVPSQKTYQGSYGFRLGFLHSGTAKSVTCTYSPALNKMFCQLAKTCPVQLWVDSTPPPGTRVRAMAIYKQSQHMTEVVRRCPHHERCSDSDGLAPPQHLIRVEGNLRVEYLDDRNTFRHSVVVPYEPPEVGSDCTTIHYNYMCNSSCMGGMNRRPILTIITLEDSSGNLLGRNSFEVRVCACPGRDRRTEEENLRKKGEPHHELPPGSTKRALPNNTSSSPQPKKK

[1] = target: human wt-PD-1 (33–150 aa, C93S mutation) (human, UniProt Q15116 33-150, C93S, RED-NHS fluorescent label (in the MST); uniformly 15N-labelled (in the NMR)); assay: MST; PD-1 or mutant labelled with RED-NHS, kept at 20 nM; unlabelled PD-L1 diluted from 183 µM to 416 nM; 50 mM Tris-HCl pH 7.6, 150 mM NaCl, 10 mM MgCl2, 0.05% Tween-20; 2 h at RT
human wt-PD-1 (33–150 aa, C93S mutation), sequence (Q15116 33-150 C93S): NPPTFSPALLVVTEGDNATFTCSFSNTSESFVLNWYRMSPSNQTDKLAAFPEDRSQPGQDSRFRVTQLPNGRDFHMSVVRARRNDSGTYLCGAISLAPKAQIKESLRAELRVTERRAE

(N66A)PD-1 = (N66A)PD-1 (human, UniProt Q15116 33-150, C93S | N66A, RED-NHS fluorescent label (in the MST); uniformly 15N-labelled (in the NMR)); assay: as above
(N66A)PD-1, sequence (Q15116 33-150 N66A/C93S): as the sequence (Q15116 33-150 C93S) above, with N34A counted along it

Row | Kd (wt-p53 (1–321 aa)) [µM] | Kd [1] [µM] | Kd ((N66A)PD-1) [µM] | Binder
1 | 0.6 ± 0.02 | – | – | B1
2 | – | 8 | > 100 | B2
